From publication doi:10.1101/2025.05.02.651972 come the findings set out here.

The target of this assay is recombinant extracellular domain of EGFR (human) (UniProt P00533). The assay is described as follows: MST.

As a reminder, the Kd is the constant that tells how readily two partners part at equilibrium. For the substance “recombinant epiregulin (from UniProt O14944) (ligand)”, the Kd was 500 nM.
